In patent publication US9650419B2, “Biocompatible protein, biocompatible protein gel and biocompatible conducting protein gel comprising the protein and method for preparing the same” (Research & Business Foundation SUNGKYUNKWAN UNIVERSITY, priority 2014, dated 2017):

Biological target: T1, trypsin (Bos taurus, UniProt P00760)
T1 construct: gene PRSS1
T1 sequence (P00760 24-246): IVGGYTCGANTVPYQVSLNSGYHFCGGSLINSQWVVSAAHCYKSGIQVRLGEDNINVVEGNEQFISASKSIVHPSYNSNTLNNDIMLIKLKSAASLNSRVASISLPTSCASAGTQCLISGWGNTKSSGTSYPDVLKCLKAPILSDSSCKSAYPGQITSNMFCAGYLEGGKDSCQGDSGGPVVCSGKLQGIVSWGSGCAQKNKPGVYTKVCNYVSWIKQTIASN
Assay: proteolytic susceptibility with trypsin (HPLC, MALDI-TOF)
Format: in vitro ADME
Conditions: 100 μM peptide stock, 200 μM protease stock, TBS buffer pH 7.5, one, seven, thirty days at room temperature
Description: In order to confirm whether β-peptide is degraded by a protease, proteolytic susceptibility of β-VhexS was measured with trypsin, chymotrypsin, and subtilisin which cleave protein nonspecifically. Peptide and pretease stock solution was prepared by desolving 100 μM of beta-VhexS and 200 μM of each pretease in TBS buffer at pH 7.5. 10 μL of stock solution. 40 μL of peptide stock solution and 10 μL of protease stock solution were transferred into micro tube and incubated for one, seven, thirty days at room temperature. The reaction was quenched with adding 100 μL of 1% TFA solution. As a control sample, 40 μL of peptide stock solution without protease was also treated with 1% TFA solution.
Degree of peptide degradation was analyzed with high performance liquid chromatography using C3 column for Agilent analysis. […] The HPLC peaks of both standard sample and enzyme treated peptide sample were compared, and the peaks appeared only for enzyme treated sample were analyzed with MALDI-TOF. The results confirmed that β-peptide was not degraded by enzymes.

## Ac-KVK EVF FVK EVF FVK EVY-NH2 (Ac-KVKEVFFVKEVFFVKEVY-NH2; also: beta-amino acids, places not given here) [β-peptide]
  degradation of peptide by protease: not degraded
